Experimental data from publication PMC7654188.

Molecular target: preassembled microtubule filaments (tubulin polymerised with Taxol)
Assay: co-sedimentation; microtubule spin-down assay (Cytoskeleton BK029): 5, 10 and 20 ug of COS1 lysate with or without Taxol-stabilised microtubule, room temperature 30 min, 60% glycerol cushion, 100,000 x g 40 min; pellet blotted with HA tag and alpha-tubulin antibodies

## HA-tagged CTTNBP2 D570Y (natural protein)
  fold microtubule binding relative to WT protein: 2.5 to 4 fold
